The results in this text go back to patent US20120178697A9.

The experiment deals with PDZ domain (residues 247 through 341) of mouse Dvl-1 (mouse) (UniProt P51141). As to the kind of experiment: method not stated; called 'experimental data', at 25° C.

The Kd is the constant that tells how readily two partners part at equilibrium. Read a low Kd as a tighter complex. As to Dapper peptide, the Kd was determined as 10 µM.
